# Results reported in publication PMC2132786.
# Legend:
# Experiment in all cases: sucrose density gradient sedimentation
# [1] = target: V55P/S71P double proline mutant hemagglutinin (X:31 strain, HA2 V55P and S71P) (influenza virus, X:31 strain) (UniProt P03437)
# [2] = target: S71P mutant hemagglutinin (X:31 strain, HA2 S71P) (influenza virus, X:31 strain) (UniProt P03437)
# [3] = target: L80P mutant hemagglutinin (X:31 strain, HA2 L80P) (influenza virus, X:31 strain) (UniProt P03437)
substance,measurement,setting,value
"V55P/S71P double proline mutant hemagglutinin (X:31 strain, HA2 V55P and S71P) (from UniProt P03437 17-344) (natural protein)",stoichiometry N,[1],3
"S71P mutant hemagglutinin (X:31 strain, HA2 S71P) (from UniProt P03437 17-344) (natural protein)",stoichiometry N,[2],3
"L80P mutant hemagglutinin (X:31 strain, HA2 L80P) (from UniProt P03437 17-344) (natural protein)",stoichiometry N,[3],3
